# Test results from doi:10.1101/2022.01.06.475303.
# Target: SARS-CoV-2 receptor binding domain (RBD), Wuhan-1 (SARS-CoV-2 Wuhan-Hu-1) (UniProt P0DTC2)
substance,measurement,value
CC6.33 IgG (antibody),neutralization IC50 against pseudotyped SARS-CoV-2 (Hela-hACE2 cells),0.228 µg/mL
